{
  "source": "paper PMC2935386",
  "about": "“Dissecting the Relation between a Nuclear Receptor and GATA: Binding Affinity Studies of Thyroid Hormone Receptor and GATA2 on TSHβ Promoter”",
  "binders": {"B1": {"name": "DR4 TRE (dsDNA)", "DNA 1": "AGTTCAGGTCACAGGAGGTCAGAG", "DNA 2": "CTCTGACCTCCTGTGACCTGAACT"}, "B2": {"name": "TSH NRE (dsDNA)", "DNA 1": "TGGGTCACCACAGCATCTGCTCACCAATGCAAAGT", "DNA 2": "ACTTTGCATTGGTGAGCAGATGCTGTGGTGACCCA"}, "B3": {"name": "GATA-RE (canonical) (dsDNA)", "DNA 1": "CACTTGATAACAGAAAGTGATAACTCT", "DNA 2": "AGAGTTATCACTTTCTGTTATCAAGTG"}, "B4": {"name": "TSH GATA-RE (dsDNA)", "DNA 1": "TCAATAGATGCTTTTCAGATAAGAA", "DNA 2": "TTCTTATCTGAAAAGCATCTATTGA"}},
  "key": {"[1]": {"molecular_target": "T1, TRβ1 DBD-LBD (TR DL, TRβ1ΔAB);RXRα1 DBD-LBD (RXR DL, RXRα1ΔAB) (human;, UniProt P10828;P19793 102-461;126-462, |)", "T1 sequence (P10828 102-461, stated change not applied, chain 1 of 2)": "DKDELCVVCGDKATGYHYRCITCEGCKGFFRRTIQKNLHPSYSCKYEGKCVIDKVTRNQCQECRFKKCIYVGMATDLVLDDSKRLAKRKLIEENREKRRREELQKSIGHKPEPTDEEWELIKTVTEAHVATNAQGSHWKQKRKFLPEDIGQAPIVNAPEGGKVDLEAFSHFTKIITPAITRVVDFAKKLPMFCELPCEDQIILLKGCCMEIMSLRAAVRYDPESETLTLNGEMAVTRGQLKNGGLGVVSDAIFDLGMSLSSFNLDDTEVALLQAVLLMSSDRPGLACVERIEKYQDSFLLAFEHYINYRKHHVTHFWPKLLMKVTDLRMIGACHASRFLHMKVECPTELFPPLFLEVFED", "T1 sequence (P19793 126-462, stated change not applied, chain 2 of 2)": "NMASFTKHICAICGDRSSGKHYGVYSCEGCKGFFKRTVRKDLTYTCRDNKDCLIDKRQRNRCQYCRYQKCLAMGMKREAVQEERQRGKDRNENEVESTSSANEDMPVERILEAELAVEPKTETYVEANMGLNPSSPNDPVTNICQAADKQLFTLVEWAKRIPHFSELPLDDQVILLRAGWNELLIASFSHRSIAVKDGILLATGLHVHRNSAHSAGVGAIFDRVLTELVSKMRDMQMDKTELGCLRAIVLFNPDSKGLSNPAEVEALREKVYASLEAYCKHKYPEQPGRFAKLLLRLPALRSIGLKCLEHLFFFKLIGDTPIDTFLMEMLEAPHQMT", "assay": "fluorescence anisotropy; T3; Hill n 3.7±1; text refers to previous studies [36],[37] but listed in this paper's Table 1 and Fig. 2; Fluorescence anisotropy: 10 nM DNA, 20 mM Hepes pH 8.0, 50 mM NaCl, 1 mM MgCl2, 3 mM DTT, 5% glycerol, 10°C; agarose gel 1.3% in 0.5x TBE", "conditions": "protein: recombinant;recombinant; tags: His (pET28a);His (pET28a); copies: 1;1; label: 5' fluorescein (FITC) on forward strand; blunt"}, "[2]": {"molecular_target": "T1, TRβ1 DBD-LBD (TR DL, TRβ1ΔAB);RXRα1 …", "assay": "fluorescence anisotropy; T3; Hill n 1.8±0.1; Fluorescence anisotropy: 10 nM DNA, 20 mM Hepes pH 8.0, 50 mM NaCl, 1 mM MgCl2, 3 mM DTT, 5% glycerol, 10°C; agarose gel 1.3% in 0.5x TBE", "conditions": "protein: recombinant;recombinant; tags: His (pET28a);His (pET28a); copies: 1;1; label: 5' fluorescein (FITC) on forward strand; blunt"}, "[3]": {"molecular_target": "GATA2-Zf;TRβ1 DBD-LBD (TR DL, TRβ1ΔAB) (;human, UniProt P23769;P10828 291-412;102-461, |)", "sequence (P23769 291-412, stated change not applied, chain 1 of 2)": "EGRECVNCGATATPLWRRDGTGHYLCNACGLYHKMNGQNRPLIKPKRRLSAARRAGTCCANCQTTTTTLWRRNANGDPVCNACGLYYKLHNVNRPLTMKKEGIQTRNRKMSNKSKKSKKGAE", "sequence (P10828 102-461, stated change not applied, chain 2 of 2)": "as the sequence (P10828 102-461, stated change not applied, chain 1 of 2) above", "assay": "fluorescence anisotropy; T3; Hill n 1±0.2; Fluorescence anisotropy: 10 nM DNA, 20 mM Hepes pH 8.0, 50 mM NaCl, 1 mM MgCl2, 3 mM DTT, 5% glycerol, 10°C; agarose gel 1.3% in 0.5x TBE", "conditions": "protein: recombinant;recombinant; tags: His, thrombin treated;His (pET28a); copies: 1;1; label: 5' fluorescein (FITC) on forward strand; blunt"}},
  "data": [
    {"binder": "B1", "values": [
      {"measurement": "Kd", "setting": "[1]", "result": "39.4 ± 2.2", "unit": "nM"}
    ]},
    {"binder": "B2", "values": [
      {"measurement": "Kd", "setting": "[2]", "result": "720 ± 19", "unit": "nM"}
    ]},
    {"binder": "B3", "values": [
      {"measurement": "Kd", "setting": "[3]", "result": "140 ± 29.8", "unit": "nM"}
    ]},
    {"binder": "B4", "values": [
      {"measurement": "Kd", "setting": "[3]", "result": "38.6 ± 7.9", "unit": "nM"}
    ]}
  ]
}
